Reference: publication PMC6188088

How the values were obtained:
[1] = tested on: T1, TnpA IS1535 (WT) (Mycobacterium tuberculosis), ORF:81838cbf; assay: EMSA
T1 sequence: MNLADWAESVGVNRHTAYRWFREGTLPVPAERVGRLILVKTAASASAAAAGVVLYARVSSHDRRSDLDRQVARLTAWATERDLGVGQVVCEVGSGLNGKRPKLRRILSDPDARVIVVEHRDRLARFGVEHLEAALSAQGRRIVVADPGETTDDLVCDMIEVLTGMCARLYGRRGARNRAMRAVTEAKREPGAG

[2] = tested on: TnpA IS1535 (WT) (Mycobacterium tuberculosis); assay: EMSA
[3] = biological target: TnpA^IS1535, full length, wild type (Mycobacterium tuberculosis); assay: native gel or EMSA; TnpA (32 nM) and TnpA-MBP (8 to 256 nM), alone or mixed, incubated with the IS1535 LEΔ54 DNA probe, which gives only complex I; oligomer bound to DNA judged from the absence of a band of intermediate mobility
[4] = biological target: TnpA^ISC1926 C-terminal domain (CTD), residues 65-221 (Sulfolobus islandicus); assay: crystal structure; TnpA^ISC1926 CTD (65-221), hanging drop, 20 mM MOPS pH 7.0, 100 mM Na-acetate, 0.1 mM DTT mixed with 8% tacsimate pH 4.0, 20% PEG3350, 25°C; 2.9 Å; two dimers in the asymmetric unit

AAAAAGAATTCCGACTCCGCCCAATCCGCCAGATTCACGCCGCCAATTAGAACACACTAACGCACACTAAAACACACTCAACACGCAACAGCTCTGAACCCCAGAGCGTTGGCCGACAAGCGCCCACCACACACGGACGTCTTTTT (double strand) [IS1535 LE 149 bp]
K half [1]: < 10 nM

IS1535 LE 149 bp
K half [2]: < 10 nM

IS1535 RE 139 bp
binding signal ([2]; scale: % of probe as PEC): 3

TnpA^IS1535, full length, wild type (enzyme)
stoichiometry N [3]: 2

TnpA^ISC1926 C-terminal domain (CTD), residues 65-221 (domain or fragment)
stoichiometry N [4]: 2
